Among the data in publication doi:10.1101/2024.08.23.608890 (bioRxiv, 2024) are Kd values, retold here.

This experiment concerns the target T1, Paeniclostridium sordellii lethal toxin TcsL, receptor binding domain (RBD) (Paeniclostridium sordellii, UniProt Q46342).
T1 sequence: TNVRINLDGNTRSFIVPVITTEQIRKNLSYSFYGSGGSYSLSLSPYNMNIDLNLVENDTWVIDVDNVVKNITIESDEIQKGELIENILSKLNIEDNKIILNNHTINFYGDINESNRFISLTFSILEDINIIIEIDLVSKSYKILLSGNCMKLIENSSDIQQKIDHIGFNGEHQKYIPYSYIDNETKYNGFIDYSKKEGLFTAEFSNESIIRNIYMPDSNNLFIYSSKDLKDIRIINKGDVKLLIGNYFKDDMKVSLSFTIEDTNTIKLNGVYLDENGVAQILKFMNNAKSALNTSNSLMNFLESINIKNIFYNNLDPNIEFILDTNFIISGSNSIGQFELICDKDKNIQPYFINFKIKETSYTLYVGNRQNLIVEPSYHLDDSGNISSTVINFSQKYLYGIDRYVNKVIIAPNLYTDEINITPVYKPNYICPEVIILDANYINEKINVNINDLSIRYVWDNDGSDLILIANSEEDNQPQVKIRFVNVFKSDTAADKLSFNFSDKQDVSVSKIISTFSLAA
The experiment is described as follows: SPR. Background: Surface plasmon resonance follows binding to a sensor surface in real time, without labels.

A word on the Kd: it is the equilibrium constant for the complex coming apart. A low value points to higher affinity.

B1: B4, ProteinMPNN-optimized de novo designed TcsL-binding miniprotein (designed binder)
chain: MSGTEEIIKEIKKMKEKGEKASSIIDLLKKAGYSEIAKKAELAALKSENMTEAAAEKAIEELK
For B1, the Kd stood at 57 pM.
